{"source": "FireProtDB (doi:10.1006/jmbi.1999.3146)", "proteins": {"B1": {"name": "Development-specific protein S wild type, P02966 (protein)", "chain": "MANITVFYNEDFQGKQVDLPPGNYTRAQLAALGIENNTISSVKVPPGVKAILYQNDGFAGDQIEVVANAEELGPLNNNVSSIRVISVPVQPRARFFYKEQFDGKEVDLPPGQYTQAELERYGIDNNTISSVKPQGLAVVLFKNDNFSGDTLPVNSDAPTLGAMNNNTSSIRIS"}}, "settings": "Myxococcus xanthus, Thermal, DSC, reversible: yes, whole UniProt chain shown", "key": {"[1]": {"settings": "pH 3, glycine-HCl 20 mM, CaCl2 3 mM"}, "[2]": {"settings": "pH 6, Sodium cacodylate 20 mM, CaCl2 3 mM"}}, "note": "“And” between values parts separate entries of the source, which are not always exact repeats. Equal values may be shown once."}
{"protein": "B1", "values": [{"measurement": "unfolding enthalpy (calorimetric)", "setting": "pH 1.5, glycine-HCl 20 mM, CaCl2 3 mM", "value": "51.9 kcal/mol and 44.5 kcal/mol"}, {"measurement": "unfolding enthalpy (calorimetric)", "setting": "pH 1.5, glycine-HCl 20 mM", "value": "48.8 kcal/mol and 42.8 kcal/mol"}, {"measurement": "unfolding enthalpy (calorimetric)", "setting": "pH 1.75, glycine-HCl 20 mM, CaCl2 3 mM", "value": "50.9 kcal/mol and 46.9 kcal/mol"}, {"measurement": "unfolding enthalpy (calorimetric)", "setting": "pH 2, glycine-HCl 20 mM, CaCl2 3 mM", "value": "58.6 kcal/mol and 49.2 kcal/mol and 50.2 kcal/mol"}, {"measurement": "Tm", "setting": "pH 2, glycine-HCl 20 mM", "value": 47.9, "unit": "°C"}, {"measurement": "unfolding enthalpy (calorimetric)", "setting": "pH 2, glycine-HCl 20 mM", "value": 55.2, "unit": "kcal/mol"}, {"measurement": "unfolding enthalpy (calorimetric)", "setting": "pH 2.25, glycine-HCl 20 mM, CaCl2 3 mM", "value": "66 kcal/mol and 55.2 kcal/mol and 54.5 kcal/mol"}, {"measurement": "Tm", "setting": "pH 2.25, glycine-HCl 20 mM", "value": 38.3, "unit": "°C"}, {"measurement": "unfolding enthalpy (calorimetric)", "setting": "pH 2.25, glycine-HCl 20 mM", "value": 65.7, "unit": "kcal/mol"}, {"measurement": "unfolding enthalpy (calorimetric)", "setting": "pH 2.5, glycine-HCl 20 mM, CaCl2 3 mM", "value": "77 kcal/mol and 59 kcal/mol and 60.5 kcal/mol"}, {"measurement": "Tm", "setting": "[1]", "value": "55 °C and 57.3 °C and 59 °C"}, {"measurement": "unfolding enthalpy (calorimetric)", "setting": "[1]", "value": "94.2 kcal/mol and 77.2 kcal/mol and 62.1 kcal/mol"}, {"measurement": "Tm", "setting": "pH 3, glycine-HCl 20 mM", "value": "53.7 °C and 54.6 °C"}, {"measurement": "unfolding enthalpy (calorimetric)", "setting": "pH 3, glycine-HCl 20 mM", "value": "89.2 kcal/mol and 69.5 kcal/mol"}, {"measurement": "Tm", "setting": "[2]", "value": 70.1, "unit": "°C"}, {"measurement": "unfolding enthalpy (calorimetric)", "setting": "[2]", "value": 79.1, "unit": "kcal/mol"}, {"measurement": "Tm", "setting": "pH 6, Sodium cacodylate 20 mM", "value": 68.9, "unit": "°C"}, {"measurement": "unfolding enthalpy (calorimetric)", "setting": "pH 6, Sodium cacodylate 20 mM", "value": 67.9, "unit": "kcal/mol"}, {"measurement": "unfolding enthalpy (calorimetric)", "setting": "pH 9, glycine-NaOH 20 mM", "value": "83.7 kcal/mol and 66.4 kcal/mol and 65 kcal/mol"}]}
